Data published in patent publication US20070254831A1 (published 2007).
Numbered stars: 1 amine (or outer) side, 2 acyl side, 3 side chain; on linkers, the order of the positions; unused ones are H or OH. Bridge positions count the residues as written; N and C are the ends. Square brackets hold non-standard residues; d marks the D form. Ends that are not written are not given here. X2 = (3R)‑3‑amino‑1‑carboxymethyl‑valerolactam, O=C1[C@H](N[*:1])CCCN1CC(=O)[*:2]; NMeL = CN[C@@H](CC(C)C)C(=O)O; Pen = CC(C)(S)[C@H](N)C(=O)O; NMeA = CN[C@@H](C)C(=O)O

B1: SEQ ID NO:17 (peptide)
peptide: CTGHFGGLYPCNGP-NH2
modifications: disulfide 1-11 (inferred)
B2: SEQ ID NO:19 (peptide)
peptide: CTGHFGGLYPC-NH2
modifications: disulfide 1-11 (inferred)
B3: SEQ ID NO:24 (peptide)
peptide: QRFCTGHFGGLYPCN-NH2
modifications: disulfide 4-14 (inferred)
B4: SEQ ID NO:22 (peptide)
peptide: FCTGHFGGLYPCNGP-NH2
modifications: disulfide 2-12 (inferred)
B5: Peptide No. 237 (peptide)
peptide: RFXTGHFGGWYPC
modifications: Pen at 3; disulfide; C-terminal amide
B6: Peptide No. 101 (peptide)
peptide: QRF[Pen]TGHFGGIYPCNGP-NH2
modifications: disulfide 4-14; N-terminus assumed
SMILES: CC[C@H](C)[C@@H]1NC(=O)CNC(=O)CNC(=O)[C@H](Cc2ccccc2)NC(=O)[C@H](Cc2c[nH]cn2)NC(=O)CNC(=O)[C@H]([C@@H](C)O)NC(=O)[C@@H](NC(=O)[C@H](Cc2ccccc2)NC(=O)[C@H](CCCNC(=N)N)NC(=O)[C@@H](N)CCC(N)=O)C(C)(C)SSC[C@@H](C(=O)N[C@@H](CC(N)=O)C(=O)NCC(=O)N2CCC[C@H]2C(N)=O)NC(=O)[C@@H]2CCCN2C(=O)[C@H](Cc2ccc(O)cc2)NC1=O
B7: Peptide No. 115 (peptide)
peptide: QRF[Pen]TGHFGGFYPCNGP-NH2
modifications: disulfide 4-14; N-terminus assumed
SMILES: C[C@@H](O)[C@@H]1NC(=O)[C@@H](NC(=O)[C@H](Cc2ccccc2)NC(=O)[C@H](CCCNC(=N)N)NC(=O)[C@@H](N)CCC(N)=O)C(C)(C)SSC[C@@H](C(=O)N[C@@H](CC(N)=O)C(=O)NCC(=O)N2CCC[C@H]2C(N)=O)NC(=O)[C@@H]2CCCN2C(=O)[C@H](Cc2ccc(O)cc2)NC(=O)[C@H](Cc2ccccc2)NC(=O)CNC(=O)CNC(=O)[C@H](Cc2ccccc2)NC(=O)[C@H](Cc2c[nH]cn2)NC(=O)CNC1=O
B8: Peptide No. 178 (peptide)
peptide: RFXTGHFXLYPC
modifications: Pen at 3; X at 8 = 3-amino-2-oxo-1-piperidine-acetic acid (drawing CHEM-US-00080); disulfide; C-terminal amide
B9: Peptide No. 197 (peptide)
peptide: RFXTGHFXLYPC
modifications: Pen at 3; X at 8 = 5,5-bicyclic dipeptide mimic (drawing CHEM-US-00085); disulfide; C-terminal amide
B10: Peptide No. 179 (peptide)
peptide: RFXTGHFXLYPC
modifications: Pen at 3; X at 8 = 3-amino-2-oxo-1-piperidine-acetic acid (drawing CHEM-US-00081); disulfide; C-terminal amide
B11: Peptide No. 228 (peptide)
peptide: RF[Pen][NMeA]GHF[X2][NMeL]YPC-NH2
modifications: disulfide 3-12; N-terminus assumed
SMILES: CC(C)C[C@H]1C(=O)N[C@@H](Cc2ccc(O)cc2)C(=O)N2CCC[C@H]2C(=O)N[C@H](C(N)=O)CSSC(C)(C)[C@H](NC(=O)[C@H](Cc2ccccc2)NC(=O)[C@@H](N)CCCNC(=N)N)C(=O)N(C)[C@@H](C)C(=O)NCC(=O)N[C@@H](Cc2c[nH]cn2)C(=O)N[C@@H](Cc2ccccc2)C(=O)N[C@@H]2CCCN(CC(=O)N1C)C2=O
B12: Peptide No. 205 (peptide)
peptide: RFXTGHFXLYPC
modifications: Pen at 3; X at 8 = 3(S)-3-amino-2-oxo-1-azepine acetic acid; disulfide; C-terminal amide
B13: Peptide No. 211 (peptide)
peptide: FVTGHFG[dP]WYPA-NH2
modifications: N-terminus assumed
SMILES: CC(C)[C@H](NC(=O)[C@@H](N)Cc1ccccc1)C(=O)N[C@H](C(=O)NCC(=O)N[C@@H](Cc1c[nH]cn1)C(=O)N[C@@H](Cc1ccccc1)C(=O)NCC(=O)N1CCC[C@@H]1C(=O)N[C@@H](Cc1c[nH]c2ccccc12)C(=O)N[C@@H](Cc1ccc(O)cc1)C(=O)N1CCC[C@H]1C(=O)N[C@@H](C)C(N)=O)[C@@H](C)O
B14: Peptide No. 169 (peptide)
peptide: QRFVTGHFG[dP]LYPINGP-NH2
modifications: N-terminus assumed
SMILES: CC[C@H](C)[C@H](NC(=O)[C@@H]1CCCN1C(=O)[C@H](Cc1ccc(O)cc1)NC(=O)[C@H](CC(C)C)NC(=O)[C@H]1CCCN1C(=O)CNC(=O)[C@H](Cc1ccccc1)NC(=O)[C@H](Cc1c[nH]cn1)NC(=O)CNC(=O)[C@@H](NC(=O)[C@@H](NC(=O)[C@H](Cc1ccccc1)NC(=O)[C@H](CCCNC(=N)N)NC(=O)[C@@H](N)CCC(N)=O)C(C)C)[C@@H](C)O)C(=O)N[C@@H](CC(N)=O)C(=O)NCC(=O)N1CCC[C@H]1C(N)=O
B15: Peptide No. 246 (peptide)
peptide: RFVTGHFG[dP]WYPA-NH2
modifications: N-terminus assumed
SMILES: CC(C)[C@H](NC(=O)[C@H](Cc1ccccc1)NC(=O)[C@@H](N)CCCNC(=N)N)C(=O)N[C@H](C(=O)NCC(=O)N[C@@H](Cc1c[nH]cn1)C(=O)N[C@@H](Cc1ccccc1)C(=O)NCC(=O)N1CCC[C@@H]1C(=O)N[C@@H](Cc1c[nH]c2ccccc12)C(=O)N[C@@H](Cc1ccc(O)cc1)C(=O)N1CCC[C@H]1C(=O)N[C@@H](C)C(N)=O)[C@@H](C)O
B16: Peptide No. 71 (peptide)
peptide: QRFSTGHFGGLYPSNGP-NH2
B17: SEQ ID NO:18 (peptide)
peptide: QRFCTGHFGGLYPC-NH2
modifications: disulfide 4-14 (inferred)
B18: SEQ ID NO:20 (peptide)
peptide: TGHFGGLYP-NH2
B19: Peptide No. 238 (peptide)
peptide: QRFXTGHFGGWYPCNGP
modifications: Pen at 4; Sar at 10; disulfide; C-terminal amide
B20: Peptide No. 107 (peptide)
peptide: QRFDTGHFGGLYKNGP-NH2
modifications: lactam 4-13; N-terminus assumed
SMILES: CC(C)C[C@@H]1NC(=O)CNC(=O)CNC(=O)[C@H](Cc2ccccc2)NC(=O)[C@H](Cc2c[nH]cn2)NC(=O)CNC(=O)[C@H]([C@@H](C)O)NC(=O)[C@@H](NC(=O)[C@H](Cc2ccccc2)NC(=O)[C@H](CCCNC(=N)N)NC(=O)[C@@H](N)CCC(N)=O)CC(=O)NCCCC[C@@H](C(=O)N[C@@H](CC(N)=O)C(=O)NCC(=O)N2CCC[C@H]2C(N)=O)NC(=O)[C@H](Cc2ccc(O)cc2)NC1=O
B21: Peptide No. 131 (peptide)
peptide: QRFXTGHFGGLYPENGP
modifications: Orn at 4; side-chain lactam bridge Orn 4-Glu 14; C-terminal amide

biological target: T1, soluble human FcRn (human, UniProt P55899 24-297; P61769 21-119, biotinylated (Sulfo-NHS-LC-Biotin) in the ELISA; amine-coupled to CM5 chip in SPR); assay: SPR, pH 6
T1 construct: also called shFcRn; biotinylated shFcRn
Procedure: (§1) The following steps were performed to cross-link soluble human or cynomolgus FcRn to the dextran surface of a CM5 sensor chip (Biacore AB, Uppsala, Sweden) by an amine coupling reaction involving 1-ethyl-(3-dimethylaminopropyl)-carbodiimide hydrochloride (EDC) (Biacore AB, Uppsala, Sweden) and N-hydroxysuccinimide (NHS) (Biacore AB, Uppsala, Sweden) as recommended by Biacore (BIAapplications Handbook, version AB, section 4.2, Biacore AB, Uppsala, Sweden). […] Residual sites on the FcRn flow cell were blocked with 1 M ethanolamine hydrochloride pH 8.5 (Biacore AB, Uppsala, Sweden). A control flow cell was blocked with ethanolamine for reference subtraction. For analysis of the monomeric peptides, FcRn was coated to a final density of 4000-5000 response units (RU). For analysis of the peptide dimers, FcRn was coated to a density of 2000-2500 RU. All SPR measurements were performed using a BIACORE 3000 Instrument (Biacore AB Uppsala, Sweden). For measurements done at either pH 6 or pH 7.4, experiments were performed in 50 mM phosphate, 100 mM sodium chloride, 0.01% surfactant P20 (Biacore AB, Uppsala, Sweden).
(§2) Ten, 2-fold dilutions of the peptide were injected over the FcRn-CM5 chip at a rate of 20 μl/min for 2 min. The peptide was dissociated from the chip for 2.5 minutes with buffer. Any remaining peptide was removed from the chip with a 30 second injection of HBS-P buffer (Biacore AB, Uppsala, Sweden) at a rate of 30 μl/min. Sensorgrams were generated and analyzed using BiaEval software version 3.1 (Biacore AB, Uppsala, Sweden). The equilibrium RU observed for each injection was plotted against concentration. The equilibrium KD values were derived by analysis of the plots using the steady state affinity model included in the BiaEval software.

| Kd [µM] | Binder |
| --- | --- |
| 34 | B1 |
| 20 | B2 |
| 6.1 | B3 |
| 11 | B4 |

biological target: T1, soluble human FcRn; assay: SPR, pH 6; remark: another data set of the same source
Procedure: as §1, §2

| Kd [µM] | Binder |
| --- | --- |
| 0.14 | B5 |
| 0.34 | B6 |
| 0.4 | B7 |

biological target: T1, soluble human FcRn; assay: SPR, pH 6; remark: another data set of the same source
Procedure: as §1, §2

| Kd [µM] | Binder |
| --- | --- |
| 0.16 | B8 |
| 0.99 | B9 |
| 0.67 | B10 |
| 0.145 | B11 |
| 0.103 | B12 |

biological target: T1, soluble human FcRn; assay: SPR, pH 6; remark: another data set of the same source
Procedure: as §1, §2

| Kd [µM] | Binder |
| --- | --- |
| 8 | B13 |
| 15 | B14 |
| 3.6 | B15 |
| 230 | B16 |

biological target: T1, soluble human FcRn; assay: SPR, pH 7.4
Procedure: as §1, §2

| Kd [µM] | Binder |
| --- | --- |
| 320 | B2 |
| 73 | B3 |
| 26 | B17 |

biological target: T1, soluble human FcRn; assay: ELISA, competitor human IgG
Procedure: (§3) The wells were coated with 100 μl/well of 1 μg/ml biotinylated-shFcRn in Buffer A. The plate was sealed and incubated at 37° C. for 2 hours. Afterwards, the plate washed with 200 μl/well of Buffer B (Buffer B: 100 mM MES pH 6, 150 mM NaCl, 0.5% BSA IgG-free (Jackson ImmunoResearch, West Grove, Pa.), 0.05% Tween-20). […] To allow for mixing, the plate was rocked for 2 minutes, sealed and incubated at 37° C. for 2 hours. […] The plate was covered, incubated for 30 minutes at room temperature and washed 4 times with 200 μl/well of ice-cold buffer B. SureBlue TMB substrate solution (100 μl/well, KPL, Gaithersburg, Md.) was added and the plate was allowed to incubate at room temperature until color developed, which took 5 to 10 minutes. Once color developed, 100 μl/well of TMB stop solution (KPL, Gaithersburg, Md.) was added and the absorbance was measured at 450 nm. The data was plotted as absorbance vs. peptide concentration to derive the inhibitory concentration 50% (IC₅₀) values.

| IC50 [µM] | Binder |
| --- | --- |
| 239 | B1 |
| 110 | B2 |
| 67 | B4 |
| > 250 | B18 |

biological target: T1, soluble human FcRn; assay: ELISA, competitor human IgG; remark: another data set of the same source
Procedure: as §3

| IC50 [µM] | Binder |
| --- | --- |
| 2.8 | B5 |
| 3.4 | B6 |
| 4.1 | B7 |
| 1 | B19 |

biological target: T1, soluble human FcRn; assay: ELISA, competitor human IgG; remark: another data set of the same source
Procedure: as §3

| IC50 [µM] | Binder |
| --- | --- |
| 0.66 | B8 |
| 7.2 | B10 |
| 1.1 | B11 |
| 0.64 | B12 |

biological target: T1, soluble human FcRn; assay: ELISA, competitor human IgG; remark: another data set of the same source
Procedure: as §3

| IC50 [µM] | Binder |
| --- | --- |
| > 125 | B20 |
| 30 | B21 |

biological target: T1, soluble human FcRn; assay: ELISA, competitor human IgG; remark: another data set of the same source
Procedure: as §3

| IC50 [µM] | Binder |
| --- | --- |
| 100 | B13 |
| 72 | B14 |
| 60 | B15 |
| > 125 | B16 |
